Target: His-LC3A (human, UniProt Q9H492 1-121)
Test: ITC

Q: Which Kd does the source give for GSGTWTLVDEG [hEPG5-LIR1 peptide] here?
A: 20.4 µM

Source: publication PMC7935953 (2021)
